The values below come from publication PMC2190564.

The term Kd denotes the equilibrium constant for the complex coming apart.

The target in the experiment is yeast actin filaments (S. cerevisiae) (UniProt P60010). As to the kind of experiment: co-sedimentation.

With “native yeast Abp1p (from UniProt P15891 1-592) (natural protein)”, the Kd was less than 100 nM and the stoichiometry N (Abp1p per actin (molar)) came to 1.
